Assay results reported in patent US20100068195A1.

Tests used:
[1] = target: mannose-6-phosphate (M6P) receptor; assay: M6P receptor affinity column (Affi-Gel 15): 6 ug GALNS loaded, eluted with a mannose-6-phosphate gradient, quantified by GALNS ELISA
[2] = target: mannose-6-phosphate (M6P) receptor; assay: M6P receptor plate binding assay: plates coated with 4 ug/mL M6P receptor, GALNS 0.16-10 nM, bound enzyme read by 4MU-Gal-6S activity, single-site fit
[3] = target: mannose-6-phosphate (M6P) receptor; assay: M6P receptor plate binding assay (receptor-coated plate, bound enzyme read by activity)

M6P Receptor Column Binding: % Bound [1] [%]	Kd [2] [nM]	Kd [3] [nM]	Binder
56	2.4		recombinant human N-acetylgalactosamine-6-sulfatase (GALNS) produced from G71S clone 4 (enzyme, Cys at position 53 of the precursor (position 79 of SEQ ID NO:4) converted to Calpha-formylglycine (FGly), about 90%; N-linked glycans at Asn178 (bis-phosphorylated mannose 7, BPM7) and Asn397 (oligomannose-type), numbered on the secreted polypeptide) APQPPNILLLLMDDMGWGDLGVYGEPSRETPNLDRMAAEGLLFPNFYSANPLCSPSRAALLTGRLPIRNGFYTTNAHARNAYTPQEIVGGIPDSEQLLPELLKKAGYVSKIVGKWHLGHRPQFHPLKHGFDEWFGSPNCHFGPYDNKARPNIPVYRDWEMVGRYYEEFPINLKTGEANLTQIYLQEALDFIKRQARHHPFFLYWAVDATHAPVYASKPFLGTSQRGRYGDAVREIDDSIGKILELLQDLHVADNTFVFFTSDNGAALISAPEQGGSNGPFLCGKQTTFEGGMREPALAWWPGHVTAGQVSHQLGSIMDLFTTSLALAGLTPPSDRAIDGLNLLPTLLQGRLMDRPIFYYRGDTLMAATLGQHKAHFWTWTNSWENFRQGIDFCPGQNVSGVTTHNLEDHTKLPLIFHLGRDPGERFPLSFASAEYQEALSRITSVVQQHQEALVPAQPQLNVCNWAVMNWAPPGCEKLGKCLTPPESIPKKCLWSH
		5.7	recombinant human N-acetylgalactosamine-6-sulfatase (GALNS) produced from G71S clone C2 (enzyme, active site Cys at position 53 of the precursor (position 79 of SEQ ID NO:4) converted to Calpha-formylglycine (percent not printed for this clone); N-linked glycans at Asn178 and Asn397, bis-phosphorylated oligomannose 0.69 mol/mol) APQPPNILLLLMDDMGWGDLGVYGEPSRETPNLDRMAAEGLLFPNFYSANPLCSPSRAALLTGRLPIRNGFYTTNAHARNAYTPQEIVGGIPDSEQLLPELLKKAGYVSKIVGKWHLGHRPQFHPLKHGFDEWFGSPNCHFGPYDNKARPNIPVYRDWEMVGRYYEEFPINLKTGEANLTQIYLQEALDFIKRQARHHPFFLYWAVDATHAPVYASKPFLGTSQRGRYGDAVREIDDSIGKILELLQDLHVADNTFVFFTSDNGAALISAPEQGGSNGPFLCGKQTTFEGGMREPALAWWPGHVTAGQVSHQLGSIMDLFTTSLALAGLTPPSDRAIDGLNLLPTLLQGRLMDRPIFYYRGDTLMAATLGQHKAHFWTWTNSWENFRQGIDFCPGQNVSGVTTHNLEDHTKLPLIFHLGRDPGERFPLSFASAEYQEALSRITSVVQQHQEALVPAQPQLNVCNWAVMNWAPPGCEKLGKCLTPPESIPKKCLWSH
